In article PMC13463089, “PA200 modulates immunoproteasome structure and activity” (Nature Communications, 2026):

Key:
[1] = biological target: human standard 20S proteasome (s20S) purchased from Enzo (human) (UniProt P60900); experiment: mass photometry; 20S at 120 nM titrated with PA200 (PA200:20S molar ratios from 0 to 15), Tris 50 mM pH 7.6, 2 h on ice, diluted six times to 20 nM 20S immediately before measurement; apparent KD from counts of free, singly- and doubly-capped 20S
[2] = biological target: human i20S purified from HEK293-EBNA cells (human) (UniProt P60900); experiment: as above

## recombinantly expressed and purified human PA200 (from UniProt Q14997 1-1843) (natural protein)
[1]
  apparent KD of the first PA200 binding event: 40 nM
  apparent KD of the second PA200 binding event: 150 nM
[2]
  apparent KD of the first PA200 binding event: 40 nM
  apparent KD of the second PA200 binding event: 150 nM
